Test results reported in patent US20240408183A1, “KYNURENINE AMINOTRANSFERASE AND PRODUCTS THEREOF FOR THE TREATMENT OF INFLAMMATORY BOWEL DISEASES” (Institut National De Recherche Pour L'Agriculture, …, priority 2021, published 2024).

Key:
[1] = test system: mice submitted to DSS-induced colitis; assay: DSS-induced colitis model in mice; assay type: in vivo, mouse (C57BL/6JRj); settings: purified AADAT intraperitoneally
Procedure: C57BL/6JRj from Janvier lab, 7 weeks old, were housed in our specific pathogen free animal facility at IERP (INRA, Jouy en Josas, France). Five to ten female mice per group were used in all experiment, were maintained in a temperature controlled (23° C.) facility with a strict 12 h light/dark cycles and were given free access to food and water. After one acclimation week, we changed water with DSS 2% (MP Biomedical) during 7 days (day 0 to day 7), and a
recovery period was practiced until day 12 (during 5 days). Body weight loss and DAI (disease activity index) were performed daily. After 12 days the samples were harvested.
Colon distal part (cut in three parts) was harvested at day 12 after DSS model and put directly in PFA (Rothi®—Histofix 4%) during 48 h and transferred in ethanol 70% until the standard pre-fixation automat and paraffin embedded. HES coloration was practiced on 5Im cut.
Data were analyzed using Prism version 7 (Graphpad Software, San Diego, USA). The non-parametric Mann Withney test or the parametric one-way ANOVA tests with multiple Bonferroni's comparison tests were performed. Values are expressed as mean±SEM. Statistical significance was defined at a p-value ****<0.0001, ***<0.001, **<0.01, *<0.05.

[2] = test system: kynurenine (KYNU) and 3-hydroxykynurenin, substrates of AADAT; assay: AADAT activity test (disappearance of kynurenine/3-hydroxykynurenin; production of KYNA and XANA in vitro); assay type: biochemical; settings: 15 min, KYNU 1000 μM, FIG. 4F
Procedure: KAT activity may be assessed by any method known by the skilled person. For instance, KAT activity could be assessed as described in the experimental section, i.e. an assay based on the disappearance of kynurenine and/or 3-hydroxykynurenin. Briefly, a reaction mixture (50 μL final volume) containing 10 mM L-kynurenine or 3-hydroxykynurenin, 2 mM α-oxoglutarate, 40 μM PLP (pyridoxal 5′-phosphate) and 0 or 1 μL of the protein to be tested prepared in buffer 100 mM potassium phosphate (pH 7.4), is incubated at 37° C. for 15 min. The reaction is stopped by the addition of an equal volume of 30% acetic acid. The supernatant of the reaction mixture, obtained by centrifugation at 3000 g for 10 min at 4° C., is mixed equally with Ehrlich's solution and incubated 15 min at room temperature to have a colorimetric reaction. In parallel, a standard range of kynurenine or 3-hydroxykynurenin from 0 μM to 1000 μM is made under the same conditions. The amount of kynurenine or 3-hydroxykynurenin present in the sample is measured with a spectrophotometer at an OD of 492 nm and calculated using the standard range. […]
The activity test is based on the disappearance of kynurenine and 3-hydroxykynurenin which are substrates of AADAT. […] The amount of kynurenine or 3-hydroxykynurenin present in the sample was measured with a spectrophotometer at an OD of 492 nm and calculated using the standard range (FIG. 4E).

[3] = 10, 1 and 0.1 μL per day and per mouse

B1: AADAT: recombinant murine Alpha-Aminoadipate AminoTransferase (SEQ ID NO:13) expressed in E. coli and purified by affinity chromatography (protein, listed as Mus musculus)
chain: MNYSRFLTATSLARKPSPIRTTADILSKAPKTLISLAPGSPNPSMFPFKSAAFTVENGSTIRFEDDLIKRALQYSPSYGIPELLSWLKQFQVKLHNPPTVNYPPNQGQMDLCITSGCQDGLCKAFEMLINPGDTILVNEPLFPGTLYAMKPLGCNIINVPSDEHGIIPEGLKKILSQWKPEDSKDPTKKTPKFLYTVPNGNNPTGNSLTGDRKKEIYELARKYDFLIIEDDPYYFLQFSKPWEPTFLSMDVDGRVIRADTFSKTVSSGLRVGFMTGPKTLIQNIVLHTQVSSVHACTLSQLMILQLLHQWGEEGFLAHIDRTIDFYKNQRDSILAAADKWLRGLAEWHVPKAGMFLWIKVKGISDTKQLIEEKAIEREVLLVPGNGFFIDGSAPTSFFRASFSLATPAQMDTAFQRLAQLIKESL
- protective effect at the two lower doses ([1]; 1 and 0.1 μL per day and per mouse): protective effect is also seen
- clinical score [1, 3]: protection, with a dose effect
- histological score [1, 3]: protection, with a dose effect
- weight loss [1, 3]: protection, with a dose effect
- colon length ([1]; 10, 1 and 0.1 μL per day and per mouse, day 12): protection, with a dose effect
- transformation of KYNU into KYNA and XANA [2]: A dose effect can be observed
